Data from publication PMC4734687, “Peptide-Based Optical uPAR Imaging for Surgery: In Vivo Testing of ICG-Glu-Glu-AE105” (PLoS ONE, 2016).

Columns and labels:
[1] = tested on: U87MG human glioblastoma xenograft tumors; assay: Optical imaging of U87MG xenograft mice 15 h post injection (tumour to background ratio); format: in vivo, mouse; conditions: IVIS Lumina XR, 15 h post i.v. injection of 10 nmol; for Uptake in the tumor (in words): U87MG xenograft mice, n = 5
Procedure: All animal experiments were performed under a protocol approved by the Animal Research Committee of the Danish Ministry of Justice (2012-15-2934-00064). 5 ×10^6 U87MG cells were suspended in 200 ul PBS and inoculated in both flanks of 6 weeks old nude NMRI female mice (24–28 g; Taconic Europe, Lille Skensved, Denmark). All mice were housed in groups with 12 h light/dark cycle and food and water was available ad libitum. When the tumours reached approx. 500 mm^3 in size the mice were enrolled in the optical imaging protocol.
(§1) 10 nmol of ICG-Glu-Glu-AE105 or ICG were administered to 5 mice each via tail vein injections. 15 h post injection the mice were anaesthetized with 2% isoflurane a full-body optical scan recorded using the acquisition mode outlined above.
After imaging with IVIS Lumina XR the anesthetized mice were moved to a surgical table and real-time tumor imaging with a Fluobeam®800 NIR-camera was performed (Fluoptics, Grenoble, France). The camera was connected to a standard laptop to allow imaging, adjustments of camera functions and recording of images and video sequences. Fluobeam®800 works with a 800 nm excitation laser optimised for ICG imaging.
The TBR values were calculated as tumor-signal divided by background-signal by drawing a ROI over each tumor and place the background ROI in an area with constant background signal. Images from IVIS Lumina XR were processed in the software Living Image, while the images from Fluobeam®800 was processed in ImageJ.

nude NMRI mice = assay: Observation of adverse effects in imaged mice; format: in vivo, mouse; conditions: 10 nmol i.v., nude NMRI mice with U87MG xenografts, n = 5 per group
Procedure: as §1

uPAR = uPAR (Homo sapiens, UniProt Q03405); assay: Surface plasmon resonance solution competition of the uPA•uPAR interaction (Biacore3000); conditions: indirect solution competition for uPA binding, purified uPAR, non-linear regression, read-out: IC50 as competitive inhibitor of the uPA•uPAR interaction
Procedure: The IC50-value for ICG-Glu-GLU-AE105 as competitive inhibitor of the uPA•uPAR interaction was measured by surface plasmon resonance in a Biacore3000 assay platform as previously published. Subsequent fitting to the binding isotherms by non-linear regression provided the IC50-value.

[2] = Plasma stability of ICG-Glu-Glu-AE105 by HPLC; format: in vitro ADME; conditions: mouse plasma 150 μl, 5 μg in DMSO, 37°C, acetonitrile precipitation, HPLC absorbance area at 780 nm
Procedure: ICG-AE105 (5 μg in DMSO) was added to 150 μl mouse plasma and the solution was incubated at 37°C for either 0, 1, 5 or 30 minutes. After incubation, acetonitrile (200 μl) was added followed by centrifugation at 3500 rpm for 4 minutes. The supernatant was collected, diluted and passed through a 0.45 μm filter. The filtered solution was analyzed on a Dionex UltiMate 300 HPLC using an Onyx Monolithic column (Phenomenex, 50x4.6 mm) and with a flow of 1.5 ml/min. The HPLC mobile phase was 0.1% TFA in H2O:MeCN 90:10 (A) and 0.1% TFA in H2O:MeCN 10:90 (B) and the gradient program: 0–2 min 10% B, 2–20 min 10–100% B, 20–21 100% B, 21–23 min 100–10%B, 23–30 min 10% B.
Each plasma sample was analyzed by HPLC and the absorbance area at 780 nm was calculated. This value was compared to the standard sample and the plasma sample at 0 min to calculated the percentage of intact ICG-AE105 recovered in the supernatant (see Table 1).

[3] = In vitro comparison of fluorescence intensity of ICG and conjugated probe; format: physicochemical
Procedure: The UV-vis absorption spectra were recorded on a Perkin-Elmer Lambda 1050 UV/vis/NIR spectrometer double beam spectrometer using the HBC solvent as baseline. The spectra were recorded in 1 cm path length cuvettes with ICG and ICG-AE105 present in the 10–50 μM range. Excitation and emission spectra and lifetimes were measured using FluoroTime 300 (PicoQuant, Berlin, Germany) system. The spectra were measured through excitation at 725 nm using a Xe-lamp excitation source. The excitation and emission measurements were measured in 1 cm cuvettes at 90° with respect to the excitation light. In the fluorescence measurements the absorbance of the samples were below 0.1 at the maximum of the lowest energy absorption band to avoid inner filter effects. After each fluorescence measurement the absorption spectra were recorded in order to verify that no photobleaching of the sample had occurred during the fluorescence measurement. All excitation and fluorescence spectra were corrected for the wavelength-dependent sensitivity of the detection from 500–900 nm.

[4] = molecular target: T1, human uPAR in U87MG tumor tissue sections (Homo sapiens, UniProt Q03405); assay: Ex vivo fluorescent imaging and uPAR immunohistochemistry of tumor sections; conditions: 4 μm paraffin tumor sections, Odyssey scanner 800 nm, antibody R2 against uPAR
T1 construct: Ex Vivo histology and fluorescence images of s.c. U87MG tumor tissue sections; from tissue; host or cells: s.c. U87MG human glioblastoma xenograft tumors grown in mice
Procedure: Tissue was formalin fixed in 4% formaldehyde in 24 h and then embedded in paraffin. For all stainings a 4 μm slice tissue were used. Before any staining the sliced tissue were imaged with an Odyssey scanner (LI-COR Biosciences, Lincoln, Nebraska) at 800 nm.
The tissue was incubated for one hour at 60° before being deparaffinized. Thereafter, tissue was pre-treated with proteinase K (Dako, Glostrup, Denmark) for 6 min. The staining was performed with the Dako ARK kit, with the antibody R2 [24] against uPAR.

[5] = molecular target: Urokinase-type plasminogen activator receptor (uPAR) (human) (UniProt Q03405)
Sequence of Urokinase-type plasminogen activator receptor (uPAR) (human) (Q03405 23-305): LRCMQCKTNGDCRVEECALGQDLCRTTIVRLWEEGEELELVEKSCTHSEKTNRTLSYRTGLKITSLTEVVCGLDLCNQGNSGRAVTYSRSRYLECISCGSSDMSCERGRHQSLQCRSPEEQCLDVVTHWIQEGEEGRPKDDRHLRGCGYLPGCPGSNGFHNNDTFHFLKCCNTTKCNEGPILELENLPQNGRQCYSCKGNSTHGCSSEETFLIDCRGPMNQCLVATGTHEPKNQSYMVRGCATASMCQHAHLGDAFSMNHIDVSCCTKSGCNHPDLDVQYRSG

T1 sequence (Q03405 23-335): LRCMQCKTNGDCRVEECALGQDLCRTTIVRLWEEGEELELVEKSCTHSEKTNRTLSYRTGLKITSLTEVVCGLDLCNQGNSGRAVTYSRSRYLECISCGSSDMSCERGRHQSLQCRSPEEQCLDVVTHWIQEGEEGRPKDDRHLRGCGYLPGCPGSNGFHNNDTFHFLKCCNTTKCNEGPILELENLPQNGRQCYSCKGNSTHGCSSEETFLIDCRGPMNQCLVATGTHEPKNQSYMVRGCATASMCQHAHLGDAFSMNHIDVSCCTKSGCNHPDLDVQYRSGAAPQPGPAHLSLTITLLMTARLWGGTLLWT

CC1(C)C(/C=C/C=C/C=C/C=C2\N(CCCCS(=O)(=O)O)c3ccc4ccccc4c3C2(C)C)=[N+](CCCCS(=O)(=O)[O-])c2ccc3ccccc3c21 [ICG, indocyanine green]
Tumour to background ratio (TBR) ([1]; U87MG s.c. xenograft mice, n = 5 mice (n = 10 tumors), mean): 1.04±0.04
Uptake in the tumor (in words) [1]: No uptake
Adverse effects observed in mice (nude NMRI mice): No adverse effects

CC(C)C[C@H](NC(=O)[C@H](Cc1ccc(O)cc1)NC(=O)[C@@H](CCCNC(=N)N)NC(=O)[C@@H](CO)NC(=O)[C@H](Cc1ccccc1)NC(=O)[C@H](CC1CCCCC1)NC(=O)[C@H](CC(=O)O)NC(=O)[C@H](CCC(=O)O)NC(=O)[C@H](CCC(=O)O)NC(=O)CCCCC[N+]1=C(C=CC=CC=CC=C2N(CCCCS(=O)(=O)[O-])c3ccc4ccccc4c3C2(C)C)C(C)(C)c2c1ccc1ccccc21)C(=O)N[C@@H](Cc1c[nH]c2ccccc12)C(=O)N[C@@H](CO)C(=O)O [ICG-Glu-Glu-AE105]
Uptake in the tumor (in words) [1]: high uptake
IC50 (uPAR): 0.134 µM
Intact ICG-AE105 recovered from supernatant (%) Compared to standard ([2]; 0 min incubation): 97,2%
Intact ICG-AE105 recovered from supernatant (%) Compared to standard ([2]; 1 min incubation): 92.3%
Intact ICG-AE105 recovered from supernatant (%) Compared to standard ([2]; 1 min incubation, listed as ICG-AE105): 92,3%
remaining at 1 min, 33 µg/mL ([2]; 1 min incubation, read-out: Intact ICG-AE105 recovered from supernatant (%) Compared to plasma sample at 0 min): 95%
Intact ICG-AE105 recovered from supernatant (%) Compared to plasma sample at 0 min ([2]; 5 min incubation): 89,3%
Intact ICG-AE105 recovered from supernatant (%) Compared to standard ([2]; 5 min incubation): 86.7%
Intact ICG-AE105 recovered from supernatant (%) Compared to standard ([2]; 5 min incubation, listed as ICG-AE105): 86,7%
Intact ICG-AE105 recovered from supernatant (%) Compared to plasma sample at 0 min ([2]; 30 min incubation): 84,1%
Intact ICG-AE105 recovered from supernatant (%) Compared to standard ([2]; 30 min incubation): 81.7%
Intact ICG-AE105 recovered from supernatant (%) Compared to standard ([2]; 30 min incubation, listed as ICG-AE105): 81,7%
Adverse effects observed in mice (nude NMRI mice): No adverse effects
Decrease in fluorescence intensity of conjugated probe compared with ICG [3]: 2 fold
Co-localization of probe fluorescence with uPAR immunohistochemistry staining [4]: co-localization of the uPAR staining and the fluorescent probe signal was observed

ICG-Glu-Glu-AE105 (peptide)
mean decrease of the max fluorescence signal of the xenograft tumours when 6.7 nmol uPA is injected together with 10 nmol probe, against probe alone [5]: 46.8%
